Data set [1] concerns the molecule itself. The data set is described as follows: SEC + native MS.
Data set [2] addresses T1, SAMD1-WH(27-105) (Homo sapiens, UniProt Q6SPF0 27-105).
T1 sequence: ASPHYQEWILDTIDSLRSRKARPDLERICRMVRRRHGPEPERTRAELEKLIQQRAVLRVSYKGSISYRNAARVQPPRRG
The data set is described as follows: X-ray crystallography.

B1: WT SAMD1-SAM (construct of the solution experiments not stated) (domain or fragment, human, UniProt Q6SPF0 462-530, looked up)
chain: WTVMDVVEYFTEAGFPEQATAFQEQEIDGKSLLLMQRTDVLTGLSIRLGPALKIYEHHIKVLQQGHFED
Regarding B1, the stoichiometry N – broadly, a count of units in the complex or per binding partner – in data set [1] was 5.

B2: 13-bp CpG DNA (dsDNA)
DNA 1: ACCTGCGCACCAT
DNA 2: ATGGTGCGCAGGT
Turning to B2, in data set [2], the binding result was “binds”.

The values above are taken from publication PMC8115922 (Science Advances, 2021).
